Measurements taken from patent publication US20240034802A1.

How the values were obtained:
Assay in all cases: flow cytometry, protein L-biotin then streptavidin-PE on CAR T cells
[1] = target: CARs on the transduced T cell surface
[2] = target: tandem CD19/CD20 chimeric antigen receptor, Construct CAR 1920 (Leader-CD19 VL-Whitlow linker CD19 VH (GGGGS)-5 CD20 VH (GGGGS)-3 CD20 VL CD8 hinge+TM-4-1BB-CD3z)
[3] = target: tandem CD20/CD19 chimeric antigen receptor, Construct CAR 2019 (Leader-CD20 VH (GGGGS)3-CD20 VL-(GGGGS)5-CD19 VL-Whitlow linker-CD19 VH CD8 hinge+TM-4-1BB-CD3z)
Chain of tandem CD20/CD19 chimeric antigen receptor, Construct CAR 2019 (Leader-CD20 VH (GGGGS)3-CD20 VL-(GGGGS)5-CD19 VL-Whitlow linker-CD19 VH CD8 hinge+TM-4-1BB-CD3z) (chain, as listed by the source mutant): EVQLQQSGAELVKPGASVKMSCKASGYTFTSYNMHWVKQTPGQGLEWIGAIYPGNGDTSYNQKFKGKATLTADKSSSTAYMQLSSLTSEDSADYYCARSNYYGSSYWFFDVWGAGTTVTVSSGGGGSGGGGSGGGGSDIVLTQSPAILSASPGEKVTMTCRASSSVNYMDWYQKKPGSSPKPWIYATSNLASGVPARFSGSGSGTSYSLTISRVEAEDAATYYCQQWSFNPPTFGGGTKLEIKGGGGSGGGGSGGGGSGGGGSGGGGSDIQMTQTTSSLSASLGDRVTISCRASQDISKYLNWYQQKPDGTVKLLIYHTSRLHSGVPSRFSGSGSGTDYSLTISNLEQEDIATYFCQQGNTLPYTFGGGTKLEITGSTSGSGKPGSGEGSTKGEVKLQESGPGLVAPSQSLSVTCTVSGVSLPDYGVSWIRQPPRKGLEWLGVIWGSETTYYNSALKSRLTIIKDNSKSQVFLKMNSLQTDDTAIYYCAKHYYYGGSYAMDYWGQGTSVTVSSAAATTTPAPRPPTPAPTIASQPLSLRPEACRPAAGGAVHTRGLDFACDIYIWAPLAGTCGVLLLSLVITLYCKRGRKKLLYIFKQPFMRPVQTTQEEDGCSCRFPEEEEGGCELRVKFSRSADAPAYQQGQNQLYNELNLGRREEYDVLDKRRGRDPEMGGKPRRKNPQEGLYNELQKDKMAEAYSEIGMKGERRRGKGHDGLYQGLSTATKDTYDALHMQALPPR

Chain of tandem CD19/CD20 chimeric antigen receptor, Construct CAR 1920 (Leader-CD19 VL-Whitlow linker CD19 VH (GGGGS)-5 CD20 VH (GGGGS)-3 CD20 VL CD8 hinge+TM-4-1BB-CD3z) (chain, as listed by the source mutant): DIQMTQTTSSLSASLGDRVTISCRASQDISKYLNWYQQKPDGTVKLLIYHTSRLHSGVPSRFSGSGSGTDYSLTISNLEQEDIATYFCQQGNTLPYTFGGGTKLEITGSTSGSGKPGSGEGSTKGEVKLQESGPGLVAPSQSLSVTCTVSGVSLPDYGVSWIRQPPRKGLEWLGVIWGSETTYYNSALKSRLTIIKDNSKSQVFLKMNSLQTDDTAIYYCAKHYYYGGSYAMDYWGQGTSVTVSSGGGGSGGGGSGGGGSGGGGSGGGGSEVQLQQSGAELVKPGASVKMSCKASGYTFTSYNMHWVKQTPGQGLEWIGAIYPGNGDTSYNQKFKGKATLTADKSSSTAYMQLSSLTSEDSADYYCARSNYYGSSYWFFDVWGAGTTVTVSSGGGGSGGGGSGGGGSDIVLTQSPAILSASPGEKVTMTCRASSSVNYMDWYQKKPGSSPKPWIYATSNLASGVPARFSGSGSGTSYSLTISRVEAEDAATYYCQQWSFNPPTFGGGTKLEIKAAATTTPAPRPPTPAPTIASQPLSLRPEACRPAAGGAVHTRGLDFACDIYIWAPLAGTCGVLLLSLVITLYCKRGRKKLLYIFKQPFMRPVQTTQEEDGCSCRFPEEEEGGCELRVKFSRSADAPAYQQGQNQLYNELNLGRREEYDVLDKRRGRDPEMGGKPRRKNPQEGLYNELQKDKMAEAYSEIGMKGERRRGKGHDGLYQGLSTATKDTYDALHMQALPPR

## protein L-biotin conjugate (GenScript)
[1]
  percent of transduced T cells stained (CAR surface expression): 61 to 93%
[2]
  percent of transduced T cells stained: 85%
[3]
  percent of transduced T cells stained: 89%
